Laboratory results: patent US6027877, “Use of immobilized mismatch binding protein for detection of mutations and polymorphisms, purification of amplified DNA samples and allele identification” (Gene Check, Inc.)

Assays:
MutS [1] = target: T1, MutS (Escherichia coli, UniProt P23909 P23909:1-853); experiment: dot blot with immobilized MutS, streptavidin-HRP ECL; as little as 0.2 ng detected; 20 mM Tris pH 7.6, 5 mM MgCl2, 1% BSA, room temperature; settings: tags: adsorbed on nitrocellulose (0.45 um, Schleicher & Schuell); single G:T mismatch
T1 sequence: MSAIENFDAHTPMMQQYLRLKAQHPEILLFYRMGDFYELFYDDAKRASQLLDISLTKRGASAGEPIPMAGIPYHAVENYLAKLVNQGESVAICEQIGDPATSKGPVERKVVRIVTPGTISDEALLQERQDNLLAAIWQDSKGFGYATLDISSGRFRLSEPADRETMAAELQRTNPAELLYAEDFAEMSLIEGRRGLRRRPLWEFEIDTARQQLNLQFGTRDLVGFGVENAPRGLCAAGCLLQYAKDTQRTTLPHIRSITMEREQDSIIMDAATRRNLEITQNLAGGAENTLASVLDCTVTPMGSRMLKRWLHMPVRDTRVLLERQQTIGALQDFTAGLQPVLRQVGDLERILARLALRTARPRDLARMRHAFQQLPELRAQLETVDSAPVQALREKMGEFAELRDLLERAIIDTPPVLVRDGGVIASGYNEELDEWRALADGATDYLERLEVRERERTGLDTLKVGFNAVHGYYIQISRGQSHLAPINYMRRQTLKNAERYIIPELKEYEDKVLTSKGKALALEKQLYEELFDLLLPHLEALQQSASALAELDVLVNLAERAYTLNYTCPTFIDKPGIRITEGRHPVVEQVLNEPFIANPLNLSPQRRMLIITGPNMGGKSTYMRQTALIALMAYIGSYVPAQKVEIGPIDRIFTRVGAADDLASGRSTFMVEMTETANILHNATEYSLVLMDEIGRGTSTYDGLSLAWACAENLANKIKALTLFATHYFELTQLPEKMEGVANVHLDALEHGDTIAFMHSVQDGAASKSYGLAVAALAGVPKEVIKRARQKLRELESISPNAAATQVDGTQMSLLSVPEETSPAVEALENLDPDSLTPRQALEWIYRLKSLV
Description: (§1) Purified MBP, E. coli MutS, at a concentration of 0.5 μg/10 μl reaction buffer was spotted on the nitrocellulose paper in each well. The wells were incubated at room temperature, and the remaining liquid was pulled through with vacuum. Each well was washed twice with 100 μl reaction buffer by adding the solution to the well and then pouring it out. After the second wash, the remaining solution was pulled through the vacuum.
(§2) Biotinylated oligonucleotides, in 20 μl reaction buffer containing 1% BSA, were added to each well. After 30 minutes at room temperature, remaining liquid was poured out. Each well was washed with 5×100 μl reaction buffer by adding the solution to the well and then pouring it out. After the fifth wash, the remaining solution was pulled through by vacuum.
(§3) The presence of biotin was detected by its binding of Streptavidin. A 100 μl volume of Streptavidin-conjugated HRP (Pierce Chemicals) at a concentration of […] in reaction buffer +1% BSA was added to each well. After 2 hours at room temperature, the solution was poured out and each well washed with 5×100 μl reaction buffer by adding the solution and then pouring it out. After the fifth wash, the remaining solution was pulled through with vacuum.

MutS [2] = target: T1, MutS; experiment: no detectable binding even with 200 ng; same buffer, 5 mM MgCl2, room temperature; settings: tags: adsorbed on nitrocellulose (0.45 um, Schleicher & Schuell); perfect duplex
Description: as §1, §2, §3

MutS [3] = target: T1, MutS; experiment: competition; competition clearly visible with 50 ng against 5 ng biotinylated mismatch 30-mer; settings: tags: adsorbed on nitrocellulose (0.45 um, Schleicher & Schuell); single G:T mismatch
Description: as §1, §2
In competition studies, the DNA binding was as described above, except that a constant amount of biotinylated mismatch-containing oligonucleotide (5 ng) was mixed with varying amounts of unlabeled DNA, with or without a mismatch, and added to the wells.

B1: beta-globin 30-mer G:T mismatch duplex (dsDNA)
DNA 1: GCACCTGACTCCTGGGGAGAAGTCTGCCGT
DNA 2: ACGGCAGACTTCTCCTCAGGAGTCAGGTGC
B1: binds (MutS [1]).

B2: beta-globin 30-mer fully matched duplex (dsDNA)
DNA 1: GCACCTGACTCCTGGGGAGAAGTCTGCCGT
DNA 2: ACGGCAGACTTCTCCCCAGGAGTCAGGTGC
B2: no binding (MutS [2]).

B3: unlabeled beta-globin 30-mer G:T mismatch duplex (dsDNA)
DNA 1: GCACCTGACTCCTGGGGAGAAGTCTGCCGT
DNA 2: ACGGCAGACTTCTCCTCAGGAGTCAGGTGC
B3: binds (MutS [3]).
